Reference: article PMC5958618

molecular target: F-actin (UniProt P68032); assay: co-sedimentation

| Kd [µM] | Substance |
| --- | --- |
| 1.8 | wild-type human striated α-tropomyosin (Tpm1.1) with the N-terminal extension Met-Ala-Ser (natural protein) |
| 1.6 | E40K mutant human α-tropomyosin (Tpm1.1) with the N-terminal extension Met-Ala-Ser (natural protein) |
| 1.7 | E62Q mutant human α-tropomyosin (Tpm1.1) with the N-terminal extension Met-Ala-Ser (natural protein) |
